Patent US20190112349A1 (UNUM THERAPEUTICS, published 2019)
Like-named read-outs stand apart in the source and are kept apart here.

Assays:
Test in all cases: cell-based or functional assay
[1] = biological target: ACTR variant 1 (wild-type ACTR)
ACTR variant 102 = biological target: ACTR variant 102
ACTR variant 131 = biological target: ACTR variant 131
[2] = biological target: ACTR variant 1 (wild-type ACTR); remark: listed apart in the source
ACTR variant 103 = biological target: ACTR variant 103
ACTR variant 26 = biological target: ACTR variant 26
ACTR variant 127 = biological target: ACTR variant 127
ACTR variant 93 = biological target: ACTR variant 93
ACTR variant 94 = biological target: ACTR variant 94

ACTR variant 102, sequence (chain, as listed by the source mutant limits assumed): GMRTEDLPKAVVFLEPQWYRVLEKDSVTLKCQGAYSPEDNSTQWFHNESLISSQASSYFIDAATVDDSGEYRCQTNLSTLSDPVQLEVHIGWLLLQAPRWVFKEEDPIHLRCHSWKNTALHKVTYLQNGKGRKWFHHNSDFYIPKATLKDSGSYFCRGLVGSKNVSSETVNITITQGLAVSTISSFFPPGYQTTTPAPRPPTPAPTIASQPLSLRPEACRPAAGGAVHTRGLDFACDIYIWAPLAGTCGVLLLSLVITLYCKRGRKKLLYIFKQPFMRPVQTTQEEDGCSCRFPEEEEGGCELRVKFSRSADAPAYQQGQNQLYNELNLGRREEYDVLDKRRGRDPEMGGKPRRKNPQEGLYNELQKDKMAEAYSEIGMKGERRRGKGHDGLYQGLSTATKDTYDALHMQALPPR
ACTR variant 131, sequence (chain, as listed by the source mutant limits assumed): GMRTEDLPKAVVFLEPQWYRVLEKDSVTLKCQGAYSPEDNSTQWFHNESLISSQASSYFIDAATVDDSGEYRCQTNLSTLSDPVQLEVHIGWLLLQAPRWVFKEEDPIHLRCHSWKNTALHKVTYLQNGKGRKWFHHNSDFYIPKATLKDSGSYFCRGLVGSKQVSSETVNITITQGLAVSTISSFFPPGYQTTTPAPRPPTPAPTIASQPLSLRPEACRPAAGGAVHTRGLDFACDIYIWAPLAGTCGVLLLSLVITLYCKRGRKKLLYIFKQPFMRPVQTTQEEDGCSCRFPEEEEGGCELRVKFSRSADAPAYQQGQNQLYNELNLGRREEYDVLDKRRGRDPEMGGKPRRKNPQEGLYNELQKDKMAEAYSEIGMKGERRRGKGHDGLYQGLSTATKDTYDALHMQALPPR

B1: Fc-enhanced anti-CD19 antibody (antibody, V domains shown)
VH: EVQLVESGGGLVKPGGSLKLSCAASGYTFTSYVMHWVRQAPGKGLEWIGYINPYNDGTKYNEKFQGRVTISSDKSISTAYMELSSLRSEDTAMYYCARGTYYYGTRVFDYWGQGTLVTVSS
VL: DIVMTQSPATLSLSPGERATLSCRSSKSLQNVNGNTYLYWFQQKPGQSPQLLIYRMSNLNSGVPDRFSGSGSGTEFTLTISSLEPEDFAVYYCMQHLEYPITFGAGTKLEIKR
Q: With B1 as the binder, how does the “Jurkat NFAT luciferase EC50” value [1] read?
A: The value was 0.26 nM.

Q: What about the “Jurkat NFAT luciferase EC50” value (ACTR variant 102) of the same binder?
A: The value was 2.2 nM.

Q: And the “Jurkat NFAT luciferase EC50” value (ACTR variant 131)?
A: Its value is 2 nM.

B2: wild-type anti-BCMA antibody (antibody)
heavy: not shown
light: DIVLTQSPPSLAMSLGKRATISCRASESVTILGSHLIHWYQQKPGQPPTLLIQLASNVQTGVPARFSGSGSRTDFTLTIDPVEEDDVAVYYCLQSRTIPRTFGGGTKLEIKRTVAAPSVFIFPPSDEQLKSGTASVVCLLNNFYPREAKVQWKVDNALQSGNSQESVTEQDSKDSTYSLSSTLTLSKADYEKHKVYACEVTHQGLSSPVTKSFNRGEC
Q: Which “Jurkat NFAT luciferase EC50” value [2] does the source give for B2 here?
A: Its value is less than 20 nM.

B3: afucosylated Fc-enhanced anti-BCMA antibody (S239D, I332E) (antibody)
heavy: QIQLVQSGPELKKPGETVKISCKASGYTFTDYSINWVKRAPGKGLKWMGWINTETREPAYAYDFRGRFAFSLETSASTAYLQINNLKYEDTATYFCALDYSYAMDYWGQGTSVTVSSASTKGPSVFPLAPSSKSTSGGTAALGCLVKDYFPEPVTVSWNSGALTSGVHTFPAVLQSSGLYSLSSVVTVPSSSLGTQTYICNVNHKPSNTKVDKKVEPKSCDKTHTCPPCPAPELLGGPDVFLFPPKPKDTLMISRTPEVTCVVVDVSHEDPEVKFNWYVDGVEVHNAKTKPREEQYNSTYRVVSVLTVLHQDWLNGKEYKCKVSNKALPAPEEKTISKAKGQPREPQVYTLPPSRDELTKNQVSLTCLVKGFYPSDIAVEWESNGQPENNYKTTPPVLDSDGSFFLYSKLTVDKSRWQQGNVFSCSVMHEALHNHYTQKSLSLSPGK
light: B2 light
modifications: afucosylated Fc glycan
Q: With B3 as the binder, how does the “Jurkat NFAT luciferase EC50” value [2] read?
A: The value was 0.17 nM.

Q: What about the “Jurkat NFAT luciferase EC50” value (ACTR variant 103) of the same binder?
A: Its value is 8.44 nM.

Q: And the “Jurkat NFAT luciferase EC50” value (ACTR variant 26)?
A: The value was 4.36 nM.

Q: And the “Jurkat NFAT luciferase EC50” value (ACTR variant 127)?
A: Its value is 2.26 nM.

Q: What about the “Jurkat NFAT luciferase EC50” value (ACTR variant 93) of the same binder?
A: Its value is less than 5 nM.

Q: And the “Jurkat NFAT luciferase EC50” value (ACTR variant 94)?
A: Its value is 1.12 nM.

B4: Fc-enhanced anti-BCMA antibody (S239D, I332E) (antibody)
heavy: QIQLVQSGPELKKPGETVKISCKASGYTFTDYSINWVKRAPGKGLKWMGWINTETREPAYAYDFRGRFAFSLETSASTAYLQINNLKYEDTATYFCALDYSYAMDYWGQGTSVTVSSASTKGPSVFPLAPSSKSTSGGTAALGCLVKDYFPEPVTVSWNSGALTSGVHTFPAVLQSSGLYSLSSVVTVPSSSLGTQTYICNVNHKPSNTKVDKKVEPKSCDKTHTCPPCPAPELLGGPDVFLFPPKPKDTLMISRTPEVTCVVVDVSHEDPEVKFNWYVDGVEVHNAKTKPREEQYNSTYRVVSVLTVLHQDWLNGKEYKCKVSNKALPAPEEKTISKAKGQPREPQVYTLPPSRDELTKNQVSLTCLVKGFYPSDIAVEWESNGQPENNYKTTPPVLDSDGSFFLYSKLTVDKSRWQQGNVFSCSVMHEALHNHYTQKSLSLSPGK
light: B2 light
Q: Which “Jurkat NFAT luciferase EC50” value [2] does the source give for B4 here?
A: Its value is 0.83 nM.

Q: What about the “Jurkat NFAT luciferase EC50” value (ACTR variant 127) of the same binder?
A: The value was less than 100 nM.

Q: What about the “Jurkat NFAT luciferase EC50” value (ACTR variant 94) of the same binder?
A: Its value is less than 100 nM.

B5: afucosylated anti-BCMA antibody (antibody)
heavy: not shown
light: B2 light
modifications: afucosylated Fc glycan
Q: How did the “Jurkat NFAT luciferase EC50” value [2] turn out when B5 was run?
A: Its value is 1 nM.

Q: And the “Jurkat NFAT luciferase EC50” value (ACTR variant 93)?
A: The value was less than 100 nM.
